Source: patent publication US20140120095A1 (Boehringer Ingelheim, published 2014)
Where two headings read alike, the source gives them in different places. Values belong to the binder of their own block, whether it stands above or below them.

Legend:
[1] = target: T1, recombinant human VEGF165 (human, UniProt P15692-4 27-191, biotinylated in the competition assays); assay: SPR Biacore, VEGF165
T1 construct: Bought protein; also called hVEGF165; rhVEGF165

[2] = target: T2, VEGF (used to stimulate HUVEC cells) (UniProt P15692-4 27-191, limits assumed); assay: cell-based or functional assay
[3] = target: T2, VEGF (used to stimulate HUVEC cells); assay: cell-based or functional assay; remark: listed apart in the source
[4] = target: T2, VEGF (used to stimulate HUVEC cells); assay: cell-based or functional assay; remark: listed apart in the source
[5] = target: T2, VEGF (used to stimulate HUVEC cells); assay: cell-based or functional assay; remark: listed apart in the source
[6] = target: T1, recombinant human VEGF165; assay: AlphaScreen, hVEGF165/hVEGFR2-Fc competition; design: % inhibition: concentration or dose not given beside the values
Target sequence in this assay (P15692 other isoform, or with tags, fused parts or gaps): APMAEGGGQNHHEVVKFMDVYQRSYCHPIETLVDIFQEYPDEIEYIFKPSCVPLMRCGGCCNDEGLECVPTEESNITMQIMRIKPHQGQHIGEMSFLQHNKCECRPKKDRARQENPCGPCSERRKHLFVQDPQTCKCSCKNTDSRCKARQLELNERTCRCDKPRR

[7] = target: T1, recombinant human VEGF165; assay: AlphaScreen, hVEGF165/hVEGFR2-Fc competition
[8] = target: T1, recombinant human VEGF165; assay: AlphaScreen, hVEGF165/hVEGFR1-Fc competition, -HSA
[9] = target: T1, recombinant human VEGF165; assay: AlphaScreen, hVEGF165/hVEGFR2-Fc competition, -HSA
[10] = target: T1, recombinant human VEGF165; assay: AlphaScreen, hVEGF165/hVEGFR1-Fc competition, -HSA; remark: listed apart in the source
[11] = target: T1, recombinant human VEGF165; assay: AlphaScreen, hVEGF165/hVEGFR2-Fc competition, -HSA; remark: listed apart in the source
[12] = target: T1, recombinant human VEGF165; assay: AlphaScreen, hVEGF165/hVEGFR2-Fc competition, +5 uM HSA
Protocol: (§1) These 2 competition assays are also performed after preincubation of the VHHs with 5 μM human serum albumin.

[13] = target: T1, recombinant human VEGF165; assay: as above; remark: listed apart in the source
Protocol: as §1

[14] = target: T3, VEGFC (UniProt P49767 103-227, limits assumed); assay: binding ELISA on coated VEGFC (Example 12.8), receptor positive control, OD 450 nm
T3 sequence (looked up): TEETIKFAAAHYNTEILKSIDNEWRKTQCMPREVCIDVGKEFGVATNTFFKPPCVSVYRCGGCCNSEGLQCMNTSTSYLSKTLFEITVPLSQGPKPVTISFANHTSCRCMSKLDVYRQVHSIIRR
Protocol: Binding to VEGFB, VEGFC, VEGFD and PIGF is assessed via a solid phase binding ELISA. […] Wells are blocked with a casein solution (1% in PBS). […] As positive controls serial dilutions of the appropriate receptors are taken along and detected with horseradish peroxidase (HRP)-conjugated goat anti-human IgG, Fc specific antibody (Jackson Immuno Research Laboratories Inc., West Grove, Pa., USA) and a subsequent enzymatic reaction in the presence of the substrate TMB (3,3′,5,5′-tetramentylbenzidine) (Pierce, Rockford, Ill., USA).

[15] = target: T4, human VEGFR2-Fc chimera (R&D Systems) (human, UniProt P35968 20-764); assay: binding ELISA on coated recombinant human VEGF121 (Example 12.7), positive control, OD 450 nm
T4 construct: also called hVEGFR2-Fc; VEGFR2-huFc
Protocol: Binding to recombinant human VEGF121 is assessed via a solid phase binding ELISA. […] Wells are blocked with a casein solution (1% in PBS).

- Kd [1]: 0.56 nM
- IC50, VEGF HUVEC proliferation assay [2]: 0.36 nM
- IC50, VEGF HUVEC Erk phosphorylation assay [3]: 0.37 nM
- % inhibition, VEGF HUVEC proliferation assay [4]: 92%
- IC50, VEGF HUVEC proliferation assay [4]: 0.68 nM
- % inhibition, VEGF HUVEC proliferation assay, -HSA [5]: 87%
- IC50, VEGF HUVEC proliferation assay, +HSA [5]: 0.69 nM
- IC50, VEGF HUVEC proliferation assay, -HSA [5]: 0.78 nM
- % inhibition [6]: 100%
- IC50 [6]: 0.169 nM
- % inhibition [7]: 100%
- IC50 [7]: 0.152 nM
- % inh [8]: 48%
- IC50 [8]: 0.45 nM
- % inh [9]: 100%
- IC50 [9]: 0.22 nM
- % inh [10]: 44%
- IC50 [10]: 0.43 nM
- % inh [11]: 100%
- IC50 [11]: 0.19 nM
- % inh [12]: 100%
- IC50 [12]: 0.3 nM
- % inh [13]: 100%
- IC50 [13]: 0.2 nM
B1: VEGFBII23B04 (VHH, not shown: small tags and cut ends)
VHH: EVQLVESGGGLVQTGDSLRLSCEVSGRTFSSYSMGWFRQAQGKEREFVVAISKGGYKYDSVSLEGRFTISKDNAKNTVYLQINSLKPEDTAVYYCASSRAYGSSRLRLADTYEYWGQGTQVTVSS
notes: also called VEGFBII23B4; VEGFBII23B04 (wt)

- EC50 (read off the curve) [14]: ~4 nM
B2: human VEGFR2-Fc chimera (Fc fusion, UniProt P35968 20-764, looked up)
chain: ASVGLPSVSLDLPRLSIQKDILTIKANTTLQITCRGQRDLDWLWPNNQSGSEQRVEVTECSDGLFCKTLTIPKVIGNDTGAYKCFYRETDLASVIYVYVQDYRSPFIASVSDQHGVVYITENKNKTVVIPCLGSISNLNVSLCARYPEKRFVPDGNRISWDSKKGFTIPSYMISYAGMVFCEAKINDESYQSIMYIVVVVGYRIYDVVLSPSHGIELSVGEKLVLNCTARTELNVGIDFNWEYPSSKHQHKKLVNRDLKTQSGSEMKKFLSTLTIDGVTRSDQGLYTCAASSGLMTKKNSTFVRVHEKPFVAFGSGMESLVEATVGERVRIPAKYLGYPPPEIKWYKNGIPLESNHTIKAGHVLTIMEVSERDTGNYTVILTNPISKEKQSHVVSLVVYVPPQIGEKSLISPVDSYQYGTTQTLTCTVYAIPPPHHIHWYWQLEEECANEPSQAVSVTNPYPCEEWRSVEDFQGGNKIEVNKNQFALIEGKNKTVSTLVIQAANVSALYKCEAVNKVGRGERVISFHVTRGPEITLQPDMQPTEQESVSLWCTADRSTFENLTWYKLGPQPLPIHVGELPTPVCKNLDTLWKLNATMFSNSTNDILIMELKNASLQDQGDYVCLAQDRKTKKRHCVVRQLTVLERVAPTITGNLENQTTSIGESIEVSCTASGNPPPQIMWFKDNETLVEDSGIVLKDGNRNLTIRRVRKEDEGLYTCQACSVLGCAKVEAFFIIEGAQEKTNLE
notes: also called hVEGFR2-Fc; VEGFR2-huFc; not shown: human Fc part of the bought chimera; not described

- binding result [15]: binds
B3: recombinant human VEGF121 (R&D Systems) (ligand, UniProt P15692-9 27-147, looked up)
chain: APMAEGGGQNHHEVVKFMDVYQRSYCHPIETLVDIFQEYPDEIEYIFKPSCVPLMRCGGCCNDEGLECVPTEESNITMQIMRIKPHQGQHIGEMSFLQHNKCECRPKKDRARQEKCDKPRR
notes: also called rhVEGF121
